The supplement of paper PMC7125110
± gives the standard error. Variants at the floor of the assay were thinned out.

B1: glmS ribozyme (parent)
chain: AUAAAAGCGCCAGAACUACAGAAAUGUAGUUGACGAGGAGGAGGUUUAUCGAAUUUUCGGCGGAUGCCUCCAAA

Assays:
Settings in all cases: with glucosamine-6-phosphate
glucosamine-6-phosphate [1] = variants of: B1; test: self-cleavage kobs at 160 uM GlcN6P; higher = faster cleavage; RNA array
How it was run: (§1)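 Glucosamine-6-phosphate, from 40 μM to 10 mM in HEPES/KCl/Mg(OAc)2 buffer, was flowed over sequenced MiSeq chips carrying barcoded ribozyme variants transcribed in situ by E. coli RNA polymerase. A hybridised Cy3 probe tracked the variants at 37 °C as tiles were imaged over ~14 h. kobs, kcat and KM were obtained by fitting normalised per-tile medians to exponential decays and then applying weighted Michaelis–Menten fits across concentrations.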

glucosamine-6-phosphate [2] = variants of: B1; test: self-cleavage kobs at 2500 uM GlcN6P; higher = faster cleavage; RNA array
How it was run: as §1

glucosamine-6-phosphate [3] = variants of: B1; test: self-cleavage kobs at 640 uM GlcN6P; higher = faster cleavage; RNA array
How it was run: as §1

glucosamine-6-phosphate [4] = variants of: B1; test: self-cleavage kobs at 10000 uM GlcN6P; higher = faster cleavage; RNA array
How it was run: as §1

Row | Variant | self-cleavage kobs at 160 uM GlcN6P (glucosamine-6-phosphate [1]) [s⁻¹] | self-cleavage kobs at 2500 uM GlcN6P (glucosamine-6-phosphate [2]) [s⁻¹] | self-cleavage kobs at 640 uM GlcN6P (glucosamine-6-phosphate [3]) [s⁻¹] | self-cleavage kobs at 10000 uM GlcN6P (glucosamine-6-phosphate [4]) [s⁻¹]
1 | C10U G51A U55C | < 1e-05 | < 1e-05 | – | –
2 | A14C U55G C67U | 0.00016 ± 4.2e-05 | 0.000399 ± 0.00015 | 0.000309 ± 9.8e-05 | –
3 | A42C G43C C68A C71A | < 1e-05 | < 1e-05 | – | –
4 | G13U C34A G40U C58A | < 1e-05 | – | < 1e-05 | –
5 | U45A A53U U65A | 0.000624 ± 0.00014 | 0.00652 ± 0.0016 | 0.0024 ± 0.00081 | –
6 | C10A C34U C50G G62U | 0.00045 ± 0.00013 | 8.51e-05 ± 2.1e-05 | 0.000144 ± 4.8e-05 | –
7 | U30C U69A | 5.29e-05 ± 1.5e-05 | 5.71e-05 ± 1.2e-05 | 0.000111 ± 3e-05 | 2.76e-05 ± 6.9e-06
8 | G7U U69C | < 1e-05 | < 1e-05 | – | –
9 | G7A G32U C34U | < 1e-05 | – | – | –
10 | C16G G51U G60C | < 1e-05 | < 1e-05 | < 1e-05 | –
11 | C11G A33U C34A G41A U54A | < 1e-05 | < 1e-05 | < 1e-05 | –
12 | A33G G37U G59C | < 1e-05 | < 1e-05 | – | –
13 | C16A G59A C70G | 9.32e-05 ± 3.1e-05 | – | – | –
14 | A12U U30C | 0.000652 ± 0.00019 | 0.0109 ± 0.0027 | 0.00125 ± 0.00032 | –
15 | A6C C8G G66C | < 1e-05 | – | < 1e-05 | –
16 | G9A U31C G51U G59U C68G | < 1e-05 | – | – | –
17 | G44U G63U | < 1e-05 | < 1e-05 | < 1e-05 | < 1e-05
18 | A12G G13A U45C U49C C50A A52C A53U G66U | < 1e-05 | < 1e-05 | – | –
19 | C11G A14U G35U C70G | 0.000125 ± 4.5e-05 | 0.00022 ± 8.2e-05 | 0.000575 ± 0.0002 | 0.000257 ± 5.4e-05
20 | G9C G38C | < 1e-05 | – | – | –
21 | G7A G9U C58A | < 1e-05 | – | < 1e-05 | –
22 | C8A C11A | < 1e-05 | – | < 1e-05 | < 1e-05
23 | A36C A52C C70U | < 1e-05 | – | < 1e-05 | –
24 | G35C C50U A53C | < 1e-05 | < 1e-05 | < 1e-05 | –
25 | G51C A53G | < 1e-05 | < 1e-05 | < 1e-05 | –
26 | A14G G35U G66U | < 1e-05 | – | < 1e-05 | –
